Results on 13 sequences are retold here after the DeepSol protein solubility set.

The nature of this data set: soluble on expression in E. coli; label from the status in PepcDB or PDB records.
For “AAAMKLAYWMYAGPAHIGTLRIASSFKNVHGIMHAPLGDDYFNVMRSMLERERDFTPVTASIVDRHVLARGSQEKVVDNIIRKDTEEHPDLIVLTPTCTSSILQEDLQNFVRRASLSTTADVLLADVNHYRVNELQAADRTLEQIVQFYIDKARRQGTLGTSKTPTPSVNIIGITTLGFHNQHDCRELKQLMADLGIQVNLVIPAAATVHDLQRLPQAWFNLVPYREIGGLTAQYLEREFGQPSVRITPMGVVETARCIRAIQGVLNAQGAGVNYEAFIEQQTREVSQAAWFSRSIDCQNLTGKKAVVFGDNTHAAAMTKILSREMGIHVVWAGTYCKYDADWFRAEVAGFCDEVLITDDHTVVGDAIARVEPAAIFGTQMERHVGKRLNIPCGVIAAPIHIQDFPVGYRPFLGYEGTNQLVDLIYNSFTLGMEDHLLEIFGGHDTKAVIHKGLSADSDLTWTAAGLAELNKIPGFVRGKVKRNTEKFAREQGISEITVEVLYAAKEAVGA”, the “soluble on expression in E. coli” value is “soluble”.

With “AAPFDVTAPQEPVLALVGSDAELTCGFSPNASSEYMELLWFRQTRSTAVLLYRDGQEQEGQQMTEYRGRATLATAGLLDGRATLLIRDVRVSDQGEYRCLFKDNDDFEEAAVYLKVAAVGSDPQISMTVQENGEMELECTSSGWYPEPQVQWRTGNREMLPSTSESKKHNEEGLFTVAVSMMIRDSSIKNMSCCIQNILLGQGKEVEISLPAPFVPRLTPW”, the “soluble on expression in E. coli” value was “not soluble”. For “AATSRDALPNTEASGPTHSKEIPALTAVETGATNPLVPSDTVQTRHVVQHRSRSESSIESFFARGACVTIMTVDNPASTTNKDKLFAVWKITYKDTVQLRRKLEFFTYSRFDMELTFVVTANFTETNNGHALNQVYQIMYVPPGAPVPEKWDDYTWQTSSNPSIFYTYGTAPARISVPYVGISNAYSHFYDGFSKVPLKDQSAALGDSLYGAASLNDFGILAVRVVNDHNPTKVTSKIRVYLKPKHIRVWCPRPPRAVAYYGPGVDYKDGTLTPLSTKDLTTY” the value was “soluble”; for “ADQPIDADVTVIGSGPGGYVAAIKAAQLGFKTVCIEKNETLGGTCLNVGCIPSKALLNNSHYYHMAHGTDFASRGIEMSEVRLNLDKMMEQKSTAVKALTGGIAHLFKQNKVVHVNGYGKITGKNQVTATKADGGTQVIDTKNILIATGSEVTPFPGITIDEDTIVSSTGALSLKKVPEKMVVIGAGVIGVELGSVWQRLGADVTAVEFLGHVGGVGIDMEISKNFQRILQKQGFKFKLNTKVTGATKKSDGKIDVSIEAASGGKAEVITCDVLLVCIGRRPFTKNLGLEELGIELDPRGRIPVNTRFQTKIPNIYAIGDVVAGPMLAHKAEDEGIICVEGMAGGAVHIDYNCVPSVIYTHPEVAWVGKSEEQLKEEGIEYKVGKFPFAANSRAKTNADTDGMVKILGQKSTDRVLGAHILGPGAGEMVNEAALALEYGASCEDIARVCHAHPTLSEAFREANLAASFGKSINF”, “soluble”; for “AEESSKAVKYYTLEEIQKHNNSKSTWLILHYKVYDLTKFLEEHPGGEEVLREQAGGDATENFEDVGHSTDARELSKTFIIGELHPDDRSKITKPSESIITTIDS”, “soluble”. For “AELLLGVNIDHIATLRNARGTAYPDPVQAAFIAEQAGADGITVHLREDRRHITDRDVRILRQTLDTRMNLEMAVTEEMLAIAVETKPHFCCLVPEKRQEVTTEGGLDVAGQRDKMRDACKRLADAGIQVSLFIDADEEQIKAAAEVGAPFIEIHTGCYADAKTDAEQAQELARIAKAATFAASLGLKVNAGHGLTYHNVKAIAAIPEMHELNIGHAIIGRAVMTGLKDAVAEMKRLMLEARG” the value was “soluble”; for “AETIVMASTTSTEQSGLFGHLLPAFKKASGIDIKVVAQGTGQALDMARRGDADVLFVHDQVAEEKFVADGYAVKRYPVMYNDFILVGPAKDPAGVKGNDIVAALGKLAKDNADFISRGDKSGTHAAELRFWKQTGSDSKGSGYKECGCGMGPALNMGSSMNAYVLSDRGTWLSFKNPGELKILVEGDKRLFNQYGVMVVNPAKFPHVKAKAAQQFVDWVTSKAGQDAIASYQV”, “not soluble”; for “AETVESCLAKSHTENSFTNVWKDDKTLDRYANYEGCLWNATGVVVCTGDETQCYGTWVPIGLAIPENEGGGSEGGGSEGGGSEGGGDDIFGELSSGKNAPKTGGGAKGNNASPAGSGNTKNNGASGADINNYAGQIKSAIESKFYDASSYAGKTCTLRIKLAPDGMLLDIKPEGGDPALCQAALAAAKLAKIPKPPSQAVYEVFKNAPLDFKPAAAHHHHHH”, “soluble”. For “AEVYNKDGNKLDLYGKVDGLHYFSDDKSVDGDQTYMRLGFKGETQVTDQLTGYGQWEYQIQGNAPESENNSWTRVAFAGLKFQDIGSFDYGRNYGVVYDVTSWTDVLPEFGGDTYGSDNFMQQRGNGFATYRNTDFFGLVDGLNFAVQYQGQNGSVSGENDPDFTGHGITNNGRKALRQNGDGVGGSITYDYEGFGVGAAVSSSKRTWDQNNTGLIGTGDRAETYTGGLKYDANNIYLAAQYTQTYNATRVGSLGWANKAQNFEAVAQYQFDFGLRPSVAYLQSKGKNLGVVAGRNYDDEDILKYVDVGATYYFNKNMSTYVDYKINLLDDNQFTRAAGINTDDIVALGLVYQF” the value was “soluble”. For “AGPGAEEEQLDTAEIAFQVKEQLLKHNIGQRVFGHYVLGLSQGSVSEILARPKPWRKLTVKGKEPFIKMKQFLSDEQNVLALRTIQVR”, the “soluble on expression in E. coli” value is “soluble”. For “AHHHHHHGSAELWEIVSFLDEYLKISEYPDKSSNGLQVEGKEEVNTIAFAVDACLDTIVKARAFNADMLIVHHGLIWGGVKYVKGLFAKRVKELLKSNMNLYAAHLPLDAHPEVGNNAQLLKLLGLEPKEKFGEYHGVMIGYIGEFEEEKPLPLIAQMLAEKLPVDYVKSYEFGVQEIKRVGVVSGGGGFAVEEASEKGVDLFITGEFTHEDYRAAEDLRLSVIAAGHYATETLGVKALMPILREKFGVKTIFIDSPTGL” the value was “not soluble”. For “AHHHHHHGSAGVRLVDVWKVFGEVTAVRELSLEVKDGEFMILLGPSGCGKTTTLRMIAGLEEPSRGQIYIGDRLVADPEKGIFVPPKDRDIAMVFQSYALYPHMTVYDNIAFPLKLRKVPRQEIDQRVREVAELLGLTELLNRKPRELSGGQRQRVALGRAIVRKPQVFLMDEPLSNLDAKLRVRMRAELKKLQRQLGVTTIYVTHDQVEAMTMGDRIAVMNGGVLQQVGSPDEVYDKPANTFVAGFIGSPPMNFLDAIVTEDGFVDFGEFRLKLLPDQFEVLGELGYVGREVIFGIRPEDLYDAMFARVRVPGENLVRAVVEIVENLGSERIVHLRVGGVTFVGAFRSESRVREGVEVDVVFDMKKIHIFDKTTGKAIF” the value was “soluble”; for “AHHHHHHGSDCGKDYCVKDLSLAEEGWKKIDWVSRFMPVLQYIKREFEEKKPFKGVRIAATLHLEMKTAFLLLTLKAGGAEVSAAASNPLSTQDDVVAALAKAGVKVYAIRGESREQYYEFMHKALDIRPNIIIDDGADMISLVHKERQEMLDEIWGGSEETTTGVIRLRAMEKAGILKFPVIAVNDSYMKYLFDNRYGTGQSTWDGIMRATNLLIAGKNVVVVGYGWCGRGIAMRARGLGATVIVVEVDPIKALEARMDGFLVMDMKEAAKIGDIFVTATGNIKCIRREHFELMKDGAIMANAGHFDVEIWKPDLEKLAVEINNPRPNVTEYKLKDGRRLYLLADGRLVNLVAADGHPAEIMDMSFALQAKAAEYIKDNHERLEPKVYILPREIDEMVARIKLESMGIKIEELTEEQKKYLESWEHGT”, “soluble”.
